Columns and labels:
[1] = test system: T1, generic peptide substrate RARTLSFAEPG
T1 sequence: RARTLSFAEPG

[2] = test system: T2, standard peptide substrate MHRQETVDCLK
T2 sequence: MHRQETVDCLK

## alpha-isoform of calmodulin-dependent protein kinase II (CaMKII)
[1]
  Km: 300 µM
[2]
  Km: 60 µM
